The record followed here is patent US20210388087A1 (Chugai, published 2021).

To fix the notation:
T1: Human CD3eg linker (human)
T1 construct: Single chain: epsilon and gamma subunits of human CD3 joined by a 29-mer linker, Flag-tag at the C-terminus; also called recombinant human CD3
T1 chain: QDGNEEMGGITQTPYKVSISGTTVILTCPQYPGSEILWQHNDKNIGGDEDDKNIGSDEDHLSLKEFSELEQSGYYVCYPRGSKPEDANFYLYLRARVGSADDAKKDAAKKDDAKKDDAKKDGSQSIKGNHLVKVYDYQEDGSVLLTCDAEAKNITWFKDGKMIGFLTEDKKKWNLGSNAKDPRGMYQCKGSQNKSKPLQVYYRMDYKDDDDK

B1: H183/L072 VH H96P (antibody, name in Kabat numbering, V domains shown)
VH: QVQLVESGGGLVQPGRSLRLSCAASGFTFSNAWMHWVRQAPGKGLEWVAQIKDKGNAYAAYYAPSVKGRFTISRDDSKNSIYLQMNSLKTEDTAVYYCHYVPYASASTVLPAFGVDAWGQGTTVTVSS
VL: DIVMTQSPLSLPVTPGEPASISCQASQELVHMNRNTYLHWYQQKPGQAPRLLIYKVSNRFPGVPDRFSGSGSGTDFTLKISRVEAEDVGVYYCAQGTSVPFTFGQGTKLEIK
B2: H183/L072 VH I51D (antibody, name in Kabat numbering, V domains shown)
VH: QVQLVESGGGLVQPGRSLRLSCAASGFTFSNAWMHWVRQAPGKGLEWVAQDKDKGNAYAAYYAPSVKGRFTISRDDSKNSIYLQMNSLKTEDTAVYYCHYVHYASASTVLPAFGVDAWGQGTTVTVSS
VL: DIVMTQSPLSLPVTPGEPASISCQASQELVHMNRNTYLHWYQQKPGQAPRLLIYKVSNRFPGVPDRFSGSGSGTDFTLKISRVEAEDVGVYYCAQGTSVPFTFGQGTKLEIK
B3: H183/L072 VH I51P (antibody, name in Kabat numbering, V domains shown)
VH: QVQLVESGGGLVQPGRSLRLSCAASGFTFSNAWMHWVRQAPGKGLEWVAQPKDKGNAYAAYYAPSVKGRFTISRDDSKNSIYLQMNSLKTEDTAVYYCHYVHYASASTVLPAFGVDAWGQGTTVTVSS
VL: DIVMTQSPLSLPVTPGEPASISCQASQELVHMNRNTYLHWYQQKPGQAPRLLIYKVSNRFPGVPDRFSGSGSGTDFTLKISRVEAEDVGVYYCAQGTSVPFTFGQGTKLEIK
B4: H183/L072 VH I51E (antibody, name in Kabat numbering, V domains shown)
VH: QVQLVESGGGLVQPGRSLRLSCAASGFTFSNAWMHWVRQAPGKGLEWVAQEKDKGNAYAAYYAPSVKGRFTISRDDSKNSIYLQMNSLKTEDTAVYYCHYVHYASASTVLPAFGVDAWGQGTTVTVSS
VL: DIVMTQSPLSLPVTPGEPASISCQASQELVHMNRNTYLHWYQQKPGQAPRLLIYKVSNRFPGVPDRFSGSGSGTDFTLKISRVEAEDVGVYYCAQGTSVPFTFGQGTKLEIK
B5: H183/L072 VH I51G (antibody, name in Kabat numbering, V domains shown)
VH: QVQLVESGGGLVQPGRSLRLSCAASGFTFSNAWMHWVRQAPGKGLEWVAQGKDKGNAYAAYYAPSVKGRFTISRDDSKNSIYLQMNSLKTEDTAVYYCHYVHYASASTVLPAFGVDAWGQGTTVTVSS
VL: DIVMTQSPLSLPVTPGEPASISCQASQELVHMNRNTYLHWYQQKPGQAPRLLIYKVSNRFPGVPDRFSGSGSGTDFTLKISRVEAEDVGVYYCAQGTSVPFTFGQGTKLEIK
B6: H183/L072 VH I51K (antibody, name in Kabat numbering, V domains shown)
VH: QVQLVESGGGLVQPGRSLRLSCAASGFTFSNAWMHWVRQAPGKGLEWVAQKKDKGNAYAAYYAPSVKGRFTISRDDSKNSIYLQMNSLKTEDTAVYYCHYVHYASASTVLPAFGVDAWGQGTTVTVSS
VL: DIVMTQSPLSLPVTPGEPASISCQASQELVHMNRNTYLHWYQQKPGQAPRLLIYKVSNRFPGVPDRFSGSGSGTDFTLKISRVEAEDVGVYYCAQGTSVPFTFGQGTKLEIK
B7: H183/L072 VH I51L (antibody, name in Kabat numbering, V domains shown)
VH: QVQLVESGGGLVQPGRSLRLSCAASGFTFSNAWMHWVRQAPGKGLEWVAQLKDKGNAYAAYYAPSVKGRFTISRDDSKNSIYLQMNSLKTEDTAVYYCHYVHYASASTVLPAFGVDAWGQGTTVTVSS
VL: DIVMTQSPLSLPVTPGEPASISCQASQELVHMNRNTYLHWYQQKPGQAPRLLIYKVSNRFPGVPDRFSGSGSGTDFTLKISRVEAEDVGVYYCAQGTSVPFTFGQGTKLEIK
B8: H183/L072 VH I51N (antibody, name in Kabat numbering, V domains shown)
VH: QVQLVESGGGLVQPGRSLRLSCAASGFTFSNAWMHWVRQAPGKGLEWVAQNKDKGNAYAAYYAPSVKGRFTISRDDSKNSIYLQMNSLKTEDTAVYYCHYVHYASASTVLPAFGVDAWGQGTTVTVSS
VL: DIVMTQSPLSLPVTPGEPASISCQASQELVHMNRNTYLHWYQQKPGQAPRLLIYKVSNRFPGVPDRFSGSGSGTDFTLKISRVEAEDVGVYYCAQGTSVPFTFGQGTKLEIK
B9: H183/L072 VH I51S (antibody, name in Kabat numbering, V domains shown)
VH: QVQLVESGGGLVQPGRSLRLSCAASGFTFSNAWMHWVRQAPGKGLEWVAQSKDKGNAYAAYYAPSVKGRFTISRDDSKNSIYLQMNSLKTEDTAVYYCHYVHYASASTVLPAFGVDAWGQGTTVTVSS
VL: DIVMTQSPLSLPVTPGEPASISCQASQELVHMNRNTYLHWYQQKPGQAPRLLIYKVSNRFPGVPDRFSGSGSGTDFTLKISRVEAEDVGVYYCAQGTSVPFTFGQGTKLEIK
B10: H183/L072 VH I51H (antibody, name in Kabat numbering, V domains shown)
VH: QVQLVESGGGLVQPGRSLRLSCAASGFTFSNAWMHWVRQAPGKGLEWVAQHKDKGNAYAAYYAPSVKGRFTISRDDSKNSIYLQMNSLKTEDTAVYYCHYVHYASASTVLPAFGVDAWGQGTTVTVSS
VL: DIVMTQSPLSLPVTPGEPASISCQASQELVHMNRNTYLHWYQQKPGQAPRLLIYKVSNRFPGVPDRFSGSGSGTDFTLKISRVEAEDVGVYYCAQGTSVPFTFGQGTKLEIK
B11: H183/L072 VH I51V (antibody, name in Kabat numbering, V domains shown)
VH: QVQLVESGGGLVQPGRSLRLSCAASGFTFSNAWMHWVRQAPGKGLEWVAQVKDKGNAYAAYYAPSVKGRFTISRDDSKNSIYLQMNSLKTEDTAVYYCHYVHYASASTVLPAFGVDAWGQGTTVTVSS
VL: DIVMTQSPLSLPVTPGEPASISCQASQELVHMNRNTYLHWYQQKPGQAPRLLIYKVSNRFPGVPDRFSGSGSGTDFTLKISRVEAEDVGVYYCAQGTSVPFTFGQGTKLEIK
B12: H183/L072 VH I51F (antibody, name in Kabat numbering, V domains shown)
VH: QVQLVESGGGLVQPGRSLRLSCAASGFTFSNAWMHWVRQAPGKGLEWVAQFKDKGNAYAAYYAPSVKGRFTISRDDSKNSIYLQMNSLKTEDTAVYYCHYVHYASASTVLPAFGVDAWGQGTTVTVSS
VL: DIVMTQSPLSLPVTPGEPASISCQASQELVHMNRNTYLHWYQQKPGQAPRLLIYKVSNRFPGVPDRFSGSGSGTDFTLKISRVEAEDVGVYYCAQGTSVPFTFGQGTKLEIK
B13: H183/L072 VH I51A (antibody, name in Kabat numbering, V domains shown)
VH: QVQLVESGGGLVQPGRSLRLSCAASGFTFSNAWMHWVRQAPGKGLEWVAQAKDKGNAYAAYYAPSVKGRFTISRDDSKNSIYLQMNSLKTEDTAVYYCHYVHYASASTVLPAFGVDAWGQGTTVTVSS
VL: DIVMTQSPLSLPVTPGEPASISCQASQELVHMNRNTYLHWYQQKPGQAPRLLIYKVSNRFPGVPDRFSGSGSGTDFTLKISRVEAEDVGVYYCAQGTSVPFTFGQGTKLEIK
B14: H183/L072 VH I51T (antibody, name in Kabat numbering, V domains shown)
VH: QVQLVESGGGLVQPGRSLRLSCAASGFTFSNAWMHWVRQAPGKGLEWVAQTKDKGNAYAAYYAPSVKGRFTISRDDSKNSIYLQMNSLKTEDTAVYYCHYVHYASASTVLPAFGVDAWGQGTTVTVSS
VL: DIVMTQSPLSLPVTPGEPASISCQASQELVHMNRNTYLHWYQQKPGQAPRLLIYKVSNRFPGVPDRFSGSGSGTDFTLKISRVEAEDVGVYYCAQGTSVPFTFGQGTKLEIK
B15: H183/L072 VH I51M (antibody, name in Kabat numbering, V domains shown)
VH: QVQLVESGGGLVQPGRSLRLSCAASGFTFSNAWMHWVRQAPGKGLEWVAQMKDKGNAYAAYYAPSVKGRFTISRDDSKNSIYLQMNSLKTEDTAVYYCHYVHYASASTVLPAFGVDAWGQGTTVTVSS
VL: DIVMTQSPLSLPVTPGEPASISCQASQELVHMNRNTYLHWYQQKPGQAPRLLIYKVSNRFPGVPDRFSGSGSGTDFTLKISRVEAEDVGVYYCAQGTSVPFTFGQGTKLEIK
B16: H183/L072 VH I51Y (antibody, name in Kabat numbering, V domains shown)
VH: QVQLVESGGGLVQPGRSLRLSCAASGFTFSNAWMHWVRQAPGKGLEWVAQYKDKGNAYAAYYAPSVKGRFTISRDDSKNSIYLQMNSLKTEDTAVYYCHYVHYASASTVLPAFGVDAWGQGTTVTVSS
VL: DIVMTQSPLSLPVTPGEPASISCQASQELVHMNRNTYLHWYQQKPGQAPRLLIYKVSNRFPGVPDRFSGSGSGTDFTLKISRVEAEDVGVYYCAQGTSVPFTFGQGTKLEIK
B17: H183/L072 VH I51W (antibody, name in Kabat numbering, V domains shown)
VH: QVQLVESGGGLVQPGRSLRLSCAASGFTFSNAWMHWVRQAPGKGLEWVAQWKDKGNAYAAYYAPSVKGRFTISRDDSKNSIYLQMNSLKTEDTAVYYCHYVHYASASTVLPAFGVDAWGQGTTVTVSS
VL: DIVMTQSPLSLPVTPGEPASISCQASQELVHMNRNTYLHWYQQKPGQAPRLLIYKVSNRFPGVPDRFSGSGSGTDFTLKISRVEAEDVGVYYCAQGTSVPFTFGQGTKLEIK
B18: H183/L072 VH I51Q (antibody, name in Kabat numbering, V domains shown)
VH: QVQLVESGGGLVQPGRSLRLSCAASGFTFSNAWMHWVRQAPGKGLEWVAQQKDKGNAYAAYYAPSVKGRFTISRDDSKNSIYLQMNSLKTEDTAVYYCHYVHYASASTVLPAFGVDAWGQGTTVTVSS
VL: DIVMTQSPLSLPVTPGEPASISCQASQELVHMNRNTYLHWYQQKPGQAPRLLIYKVSNRFPGVPDRFSGSGSGTDFTLKISRVEAEDVGVYYCAQGTSVPFTFGQGTKLEIK
B19: H183/L072 VH I51R (antibody, name in Kabat numbering, V domains shown)
VH: QVQLVESGGGLVQPGRSLRLSCAASGFTFSNAWMHWVRQAPGKGLEWVAQRKDKGNAYAAYYAPSVKGRFTISRDDSKNSIYLQMNSLKTEDTAVYYCHYVHYASASTVLPAFGVDAWGQGTTVTVSS
VL: DIVMTQSPLSLPVTPGEPASISCQASQELVHMNRNTYLHWYQQKPGQAPRLLIYKVSNRFPGVPDRFSGSGSGTDFTLKISRVEAEDVGVYYCAQGTSVPFTFGQGTKLEIK

The target of this test is T1, Human CD3eg linker. Kind of test: Biacore SPR, vs template H183/L072. (In general: SPR reads the build-up and loss of mass on a sensor chip optically.)
B1: the “fold change of affinity” value turned out to be 0 fold.

Take B2: the “fold change of affinity” value came out at 0 fold.

In the case of B3, the “fold change of affinity” value came out at 0 fold.

For B4, the “fold change of affinity” value is 0 fold.

As to B5, the “fold change of affinity” value is 0 fold.

With B6, the “fold change of affinity” value is 1 fold.

In the case of B7, the “fold change of affinity” value is 0 fold.

B8: the “fold change of affinity” value worked out at 0 fold.

Turning to B9, the “fold change of affinity” value was found to be 0.4 fold.

For the molecule B10, the “fold change of affinity” value worked out at 0 fold.

On to B11, for which the “fold change of affinity” value worked out at 1.1 fold.

Take B12: the “fold change of affinity” value was 0 fold.

On to B13, for which the “fold change of affinity” value was 0 fold.

As for B14, the “fold change of affinity” value was 0.2 fold.

In the case of B15, the “fold change of affinity” value was found to be 0.3 fold.

Turning to B16, the “fold change of affinity” value is 0 fold.

Turning to B17, the “fold change of affinity” value is 0 fold.

As to B18, the “fold change of affinity” value is 0 fold.

For B19, the “fold change of affinity” value came to 0 fold.
